{"source": "paper PMC10666116", "about": "“Tunable force transduction through the Escherichia coli cell envelope” (Proceedings of the National Academy of Sciences of the …, 2023)", "molecular_target": "the molecule itself", "assay": "cryo-EM structure; single-particle cryo-EM of purified TolQR complex at 7.5 mg/mL in SEC buffer (50 mM Tris/HCl pH 7.5, 300 mM NaCl, 2 mM EDTA, 0.01% LMNG); rigid-body refinement of a published model"}
{"protein": "TolQ (natural protein, E. coli, UniProt P0ABU9 1-230, looked up, TolQ, E. coli, inner-membrane motor protein of the Tol system; expressed from pCEP13 (pT12-tolQ-tolR); Pentamer in the TolQR complex; also called TolQ pentamer; motor subunit of TolQR) MTDMNILDLFLKASLLVKLIMLILIGFSIASWAIIIQRTRILNAAAREAEAFEDKFWSGIELSRLYQESQGKRDNLTGSEQIFYSGFKEFVRLHRANSHAPEAVVEGASRAMRISMNRELENLETHIPFLGTVGSISPYIGLFGTVWGIMHAFIALGAVKQATLQMVAPGIAEALIATAIGLFAAIPAVMAYNRLNQRVNKLELNYDNFMEEFTAILHRQAFTVSESNKG", "values": [{"measurement": "stoichiometry N", "value": 5}]}
